Biological target: CaM(C110)D with an IAEDANS probe coupled to position 110 (UniProt P0DP23)
Assay: FRET or BRET

- rate of FRET change after EGTA, fast phase (release of Ca^2+ from the N-domain): 5.8 s⁻¹
Substance: CKIIp with a C-terminal Gly-Cys extension labeled with DDPM (peptide)
